Results from patent US20210230279A1.

Assays:
[1] = target: recombinant human integrin αvβ6 (human) (UniProt P18564); assay: blocking of adhesion (A590) of Cho cells expressing GARP/LTGFB1 to immobilized αvβ6; antibody concentration varied; unit taken from the axis log[Agonist], (ug/ml)
[2] = target: recombinant human integrin αvβ6 (human) (UniProt P18564)
[3] = target: recombinant human integrin αvβ6 (human) (UniProt P18564); assay: competition of 3G9 with RGD3 for binding to αvβ6 (sheet title); y axis 'Relative Inhibition of avb6 binding to TGFb3 peptide'; signal falls from about 1.03 to about 0.04 at log 4

recombinant human integrin αvβ6 (human), sequence (chain, as listed by the source limits assumed, chain 1 of 2): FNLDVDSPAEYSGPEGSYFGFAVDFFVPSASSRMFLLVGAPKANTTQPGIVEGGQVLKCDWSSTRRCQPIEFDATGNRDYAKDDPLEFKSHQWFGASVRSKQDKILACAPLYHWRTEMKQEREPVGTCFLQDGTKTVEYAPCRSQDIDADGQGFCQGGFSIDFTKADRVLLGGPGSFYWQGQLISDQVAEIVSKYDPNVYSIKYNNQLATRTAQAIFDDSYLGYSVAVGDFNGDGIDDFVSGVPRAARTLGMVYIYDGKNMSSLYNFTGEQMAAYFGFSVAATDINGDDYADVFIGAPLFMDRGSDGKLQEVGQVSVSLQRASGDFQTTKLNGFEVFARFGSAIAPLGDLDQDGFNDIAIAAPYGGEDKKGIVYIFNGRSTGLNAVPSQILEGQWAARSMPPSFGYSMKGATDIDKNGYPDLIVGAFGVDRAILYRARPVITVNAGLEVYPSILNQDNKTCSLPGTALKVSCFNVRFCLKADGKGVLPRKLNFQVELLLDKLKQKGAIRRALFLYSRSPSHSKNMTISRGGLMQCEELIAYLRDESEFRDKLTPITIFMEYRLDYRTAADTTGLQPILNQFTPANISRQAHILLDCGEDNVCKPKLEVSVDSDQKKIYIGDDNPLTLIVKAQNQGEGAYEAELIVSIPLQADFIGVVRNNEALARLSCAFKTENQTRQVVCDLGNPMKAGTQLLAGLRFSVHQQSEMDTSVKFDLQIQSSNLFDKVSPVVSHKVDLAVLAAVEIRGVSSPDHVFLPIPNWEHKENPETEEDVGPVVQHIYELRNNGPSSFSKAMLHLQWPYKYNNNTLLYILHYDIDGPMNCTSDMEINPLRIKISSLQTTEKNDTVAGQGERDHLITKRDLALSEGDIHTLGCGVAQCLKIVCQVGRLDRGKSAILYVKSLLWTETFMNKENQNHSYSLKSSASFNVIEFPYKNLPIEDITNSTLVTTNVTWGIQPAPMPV
recombinant human integrin αvβ6 (human), sequence (P18564 22-707 limits assumed, chain 2 of 2): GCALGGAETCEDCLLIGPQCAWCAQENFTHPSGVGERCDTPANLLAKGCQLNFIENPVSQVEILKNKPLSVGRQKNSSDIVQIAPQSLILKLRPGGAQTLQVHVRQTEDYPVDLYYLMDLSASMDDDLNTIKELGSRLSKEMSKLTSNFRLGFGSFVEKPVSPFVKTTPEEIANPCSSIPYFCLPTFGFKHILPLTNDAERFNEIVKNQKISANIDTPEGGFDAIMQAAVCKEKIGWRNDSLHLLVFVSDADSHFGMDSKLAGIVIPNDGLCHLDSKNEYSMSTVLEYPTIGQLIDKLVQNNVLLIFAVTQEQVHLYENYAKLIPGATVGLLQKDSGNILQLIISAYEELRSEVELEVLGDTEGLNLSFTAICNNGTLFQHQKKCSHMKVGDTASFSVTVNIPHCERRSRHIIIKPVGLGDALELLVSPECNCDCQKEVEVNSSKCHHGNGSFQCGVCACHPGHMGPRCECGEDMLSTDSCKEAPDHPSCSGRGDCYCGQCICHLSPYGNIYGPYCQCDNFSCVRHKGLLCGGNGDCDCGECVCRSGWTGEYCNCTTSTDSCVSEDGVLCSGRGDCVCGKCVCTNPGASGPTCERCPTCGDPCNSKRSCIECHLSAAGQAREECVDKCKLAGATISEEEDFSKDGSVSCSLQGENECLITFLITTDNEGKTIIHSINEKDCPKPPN

Mab 3G9 (anti-β6) (antibody)
EC50 [1]: 0.834 µg/mL | EC50 of inhibition of TGF-β activation (TMLC luciferase reporter) of GARP/LTGFB1 Cho cells on immobilized αvβ6; unit from the axis [2]: 0.922 µg/mL | LogEC50 (Log10 (ng/ml)) [3]: 2.93
